Six molecules from patent publication US20220168402A1, “PIP4Ks SUPPRESS INSULIN SIGNALING AND ENHANCE IMMUNE FUNCTION THROUGH A CATALYTIC-INDEPENDENT MECHANISM” (Cornell University, priority 2019, published 2022) can be followed below.

The target of data set [1] is PIP5K1A (purified, in vitro kinase assay) (UniProt Q99755).
For a further data set, the target named is T1, PIP5K1A (Homo sapiens, UniProt Q99755).
T1 construct: made in house; host or cells: E. coli
Briefly: In vitro kinase assay: conversion of PI(4)P to radiolabeled PI(4,5)P2 by PIP5K1A with purified PIP4K proteins added. Type of data set: biochemical. Conditions: for inhibition of PIP5K1A activity (PI(4)P to PI(4,5)P2): purified proteins, PI(4)P liposomes, 2-10 fold molar excess of PIP4K. How it is done:
BL21 bacterial cells were transfected with pGEX vectors with PIP4K isoform coding sequence variants. Cells were grown in 1 L of TB at 37° at 200 rpm until 0.8 OD, at which point 500 uL of 1M IPTG was added. Cultures were shaken overnight at room temp for protein induction and pelleted at 5000 g for 15 minutes. Cells were lysed (50 mM Tris pH 7.5, 500 mM NaCl, 10 mM MgCl2, 10% glycerol, DTT, lysozyme, protein/phosphatase inhibitors), sonicated for 1 minute (output 4, continuous duty cycle) and spun down at 10,000 g for 1 hour. Supernatant was kept for further purification and cleavage according to manufacturer's protocol using glutathione sepharose beads.
Cells were trypsinized and normalized for cell number. Cell pellets, or E. coli purified proteins were resuspended in HNE buffer (20 mM HEPES pH 7.4, 100 mM NaCl, 0.5 mM EGTA), and sonicated in the presence of 32P-γ-ATP, and liposomes (10 ug PS, 1 ug PI(4)P in 30 mM HEPES pH 7.4, 1 mM EGTA). Liposome lipids were purchased from Avanti. Reactions were stopped by addition of 50 uL of 4N HCL. To extract lipids, 100 μL of MeOH:CHCl3 (1:1) was added and samples were vortexed 2×30 seconds. Samples were spun down at top speed for 2 min and the organic phase containing phosphatidylinositol lipids (bottom) were separated using thin-layer chromatography (TLC) using 1-propanol: 2N acetic acid (65:35 v/v). TLC plates were prepared ahead of time by coating with 1% Potassium Oxalate. Phosphorylated lipids were visualized by autoradiography on a GE Typhoon FLA 7000 and quantified using ImageQuant TL software.

Data set [2] addresses T2, PIP5K1A (purified, in vitro kinase assay), Q99755.
T2 chain: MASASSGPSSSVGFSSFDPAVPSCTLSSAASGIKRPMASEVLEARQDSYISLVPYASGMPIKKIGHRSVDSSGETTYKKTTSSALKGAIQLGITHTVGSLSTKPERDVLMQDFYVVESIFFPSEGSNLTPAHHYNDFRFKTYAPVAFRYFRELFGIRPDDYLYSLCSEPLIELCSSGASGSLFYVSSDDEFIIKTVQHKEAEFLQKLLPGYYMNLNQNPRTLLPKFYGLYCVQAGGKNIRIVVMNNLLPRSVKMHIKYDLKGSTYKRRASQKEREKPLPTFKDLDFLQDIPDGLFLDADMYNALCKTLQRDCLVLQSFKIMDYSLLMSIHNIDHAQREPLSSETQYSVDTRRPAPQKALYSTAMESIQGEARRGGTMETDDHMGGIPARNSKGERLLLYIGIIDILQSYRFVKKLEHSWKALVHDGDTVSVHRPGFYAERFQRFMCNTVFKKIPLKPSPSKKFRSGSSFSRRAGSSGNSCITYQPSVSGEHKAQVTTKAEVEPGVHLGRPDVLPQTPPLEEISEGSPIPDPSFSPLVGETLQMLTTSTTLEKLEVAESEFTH

Data set [3] deals with endogenous PIP5K1A (293T lysate) (UniProt Q99755 1-562, limits assumed). Kind of data set: GST pulldown from 293T lysates with bead-bound bait, western blot (FIG. 3J). How it is done: These lysates and purified protein were incubated together at 4 degrees for 1 hour before the beads were again pelleted, washed with IP buffer three times, eluted with 2M NaCl, and analyzed by SDS PAGE and western blot.

Turning to GST-PIP4K2C 74DD to 74NN, the “in vitro kinase assay: conversion of PI(4)P to radiolabeled PI(4,5)P2 by PIP5K1A (FIG. 4H)” value in data set [1] is “Mutating 74DD to be 74NN or mutating 91REN to be 91 EED within GST-PIP4K2C did not prevent this protein from inhibiting PIP5K1A”.
With GST-PIP4K2C 91REN to 91EED, in data set [1], the “in vitro kinase assay: conversion of PI(4)P to radiolabeled PI(4,5)P2 by PIP5K1A (FIG. 4H)” value is on record as “Mutating 74DD to be 74NN or mutating 91REN to be 91 EED within GST-PIP4K2C did not prevent this protein from inhibiting PIP5K1A”.

B1: PIP4K2B (purified) (protein)
chain: MSSNCTSTTAVAVAPLSASKTKTKKKHFVCQKVKLFRASEPILSVLMWGVNHTINELSNVPVPVMLMPDDFKAYSKIKVDNHLFNKENLPSRFKFKEYCPMVFRNLRERFGIDDQDYQNSVTRSAPINSDSQGRCGTRFLTTYDRRFVIKTVSSEDVAEMHNILKKYHQFIVECHGNTLLPQFLGMYRLTVDGVETYMVVTRNVFSHRLTVHRKYDLKGSTVAREASDKEKAKDLPTFKDNDFLNEGQKLHVGEESKKNFLEKLKRDVEFLAQLKIMDYSLLVGIHDVDRAEQEEMEVEERAEDEECENDGVGGNLLCSYGTPPDSPGNLLSFPRFFGPGEFDPSVDVYAMKSHESSPKKEVYFMAIIDILTPYDTKKKAAHAAKTVKHGAGAEISTVNPEQYSKRFNEFMSNILT
For B1, the “inhibition of PIP5K1A activity (PI(4)P to PI(4,5)P2)” value with PIP5K1A is “inhibited”.

B2: PIP4K2C (purified) (protein)
chain: MASSSVPPATVSAATAGPGPGFGFASKTKKKHFVQQKVKVFRAADPLVGVFLWGVAHSINELSQVPPPVMLLPDDFKASSKIKVNNHLFHRENLPSHFKFKEYCPQVFRNLRDRFGIDDQDYLVSLTRNPPSESEGSDGRFLISYDRTLVIKEVSSEDIADMHSNLSNYHQYIVKCHGNTLLPQFLGMYRVSVDNEDSYMLVMRNMFSHRLPVHRKYDLKGSLVSREASDKEKVKELPTLKDMDFLNKNQKVYIGEEEKKIFLEKLKRDVEFLVQLKIMDYSLLLGIHDIIRGSEPEEEAPVREDESEVDGDCSLTGPPALVGSYGTSPEGIGGYIHSHRPLGPGEFESFIDVYAIRSAEGAPQKEVYFMGLIDILTQYDAKKKAAHAAKTVKHGAGAEISTVHPEQYAKRFLDFITNIFA
For the molecule B2, in data set [2], the “in vitro kinase assay: conversion of PI(4)P to radiolabeled PI(4,5)P2 by PIP5K1A (FIG. 3K)” value is reported as “PIP5K1A, which is inhibited by PIP4K2C but not PIP4K2C^VD”.

B3: GST-PIP4K2C^VD (enzyme)
chain: MASSSVPPATVSAATAGPGPGFGFASKTKKKHFVQQKVKVFRAADPLVGVFLWGVAHSINELSQVPPPEIFLPNNFKASSKIKVNNHLFHRENLPSHFKFKEYCPQVFRNLRDRFGIDDQDYLVSLTRNPPSESEGSDGRFLISYDRTLVIKEVSSEDIADMHSNLSNYHQYIVKCHGNTLLPQFLGMYRVSVDNEDSYMLVMRNMFSHRLPVHRKYDLKGSLVSREASDKEKVKELPTLKDMDFLNKNQKVYIGEEEKKIFLEKLKRDVEFLVQLKIMDYSLLLGIHDIIRGSEPEEEAPVREDESEVDGDCSLTGPPALVGSYGTSPEGIGGYIHSHRPLGPGEFESFIDVYAIRSAEGAPQKEVYFMGLIDILTQYDAKKKAAHAAKTVKHGAGAEISTVHPEQYAKRFLDFITNIFA
notes: the text and the Quik-2CVD primer give EIF, which is used here; not shown: glutathione S-transferase (GST) tag from a pGEX vector
As for B3, in data set [2], the “in vitro kinase assay: conversion of PI(4)P to radiolabeled PI(4,5)P2 by PIP5K1A (FIG. 3K)” value was “PIP4K2C^VD failed to inhibit PIP5K1A activity”. Also, the binding result in data set [3] is on record as “no binding”.

B4: PIP4K2A (purified) (protein)
chain: MATPGNLGSSVLASKTKTKKKHFVAQKVKLFRASDPLLSVLMWGVNHSINELSHVQIPVMLMPDDFKAYSKIKVDNHLFNKENMPSHFKFKEYCPMVFRNLRERFGIDDQDFQNSLTRSAPLPNDSQARSGARFHTSYDKRYIIKTITSEDVAEMHNILKKYHQYIVECHGITLLPQFLGMYRLNVDGVEIYVIVTRNVFSHRLSVYRKYDLKGSTVAREASDKEKAKELPTLKDNDFINEGQKIYIDDNNKKVFLEKLKKDVEFLAQLKLMDYSLLVGIHDVERAEQEEVECEENDGEEEGESDGTHPVGTPPDSPGNTLNSSPPLAPGEFDPNIDVYGIKCHENSPRKEVYFMAIIDILTHYDAKKKAAHAAKTVKHGAGAEISTVNPEQYSKRFLDFIGHILT
With B4, the “inhibition of PIP5K1A activity in presence of detergent” value in the data set with PIP5K1A (0.1% Triton-X100, no PI(4)P liposomes) was “eliminated the ability of PIP4K2A to inhibit PIP5K1A”. Further, the “inhibition of PIP5K1A activity (PI(4)P to PI(4,5)P2)” value with PIP5K1A is on record as “inhibited”.
